Where no end group is shown, it is not given here. Ahx = NCCCCCC(=O)O
The binders below were run against G3BP1 NTF2 (1-139) F15W (human, UniProt Q13283 1-139, F15W) (assay: fluorescence polarisation).
Chain of G3BP1 NTF2 (1-139) F33/124W (Q13283 1-139 F33W/F124W): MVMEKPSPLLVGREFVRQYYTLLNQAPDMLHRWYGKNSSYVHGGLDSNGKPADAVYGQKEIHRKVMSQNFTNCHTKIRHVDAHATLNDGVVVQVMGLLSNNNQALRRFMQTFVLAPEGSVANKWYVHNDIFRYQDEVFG
Chain of G3BP1 NTF2 (1-139) F15/33W (Q13283 1-139 F15W/F33W): as the sequence (Q13283 1-139 F33W/F124W) above, with F15W, W124F counted along it
Chain of G3BP1 NTF2 (1-139) F15W (Q13283 1-139 F15W): as the sequence (Q13283 1-139 F33W/F124W) above, with F15W, W33F, W124F counted along it
Chain of G3BP1 NTF2 (1-139) TripleW (F15W/F33W/F124W) (Q13283 1-139 F15W/F33W/F124W): as the sequence (Q13283 1-139 F33W/F124W) above, with F15W counted along it
Chain of G3BP1 NTF2 (1-139) F15/124W (Q13283 1-139 F15W/F124W): as the sequence (Q13283 1-139 F33W/F124W) above, with F15W, W33F counted along it
A Kd of 9.3 µM was found for {fluorescein-Ahx}-YNFIQDSMLDFE [Caprin1-derived dodecamer reporter peptide F*-YNFIQDSMLDFE] in this work.

What follows are binders tested against G3BP1 NTF2 (1-139) S38T (human, UniProt Q13283 1-139, S38T) (assay: fluorescence polarisation).
Chain of G3BP1 NTF2 (1-139) S38T (Q13283 1-139 S38T): as the sequence (Q13283 1-139 F33W/F124W) above, with W33F, S38T, W124F counted along it
{fluorescein-Ahx}-YNFIQDSMLDFE [Caprin1-derived dodecamer reporter peptide F*-YNFIQDSMLDFE]: binds.

The binders below were run against G3BP1 NTF2 (1-139) TripleW (F15W/F33W/F124W) (human, UniProt Q13283 1-139, F15W | F33W | F124W) (assay: fluorescence polarisation).
{fluorescein-Ahx}-YNFIQDSMLDFE [Caprin1-derived dodecamer reporter peptide F*-YNFIQDSMLDFE]: binds.

What follows are binders tested against G3BP1 NTF2 (1-139) F15/33W (human, UniProt Q13283 1-139, F15W | F33W) (assay: fluorescence polarisation).
{fluorescein-Ahx}-YNFIQDSMLDFE [Caprin1-derived dodecamer reporter peptide F*-YNFIQDSMLDFE]: binds.

The binders below were run against G3BP1 NTF2 (1-139) F33/124W (human, UniProt Q13283 1-139, F33W | F124W) (assay: fluorescence polarisation).
{fluorescein-Ahx}-YNFIQDSMLDFE [Caprin1-derived dodecamer reporter peptide F*-YNFIQDSMLDFE]: binds.

What follows are binders tested against G3BP1 NTF2 (1-139) S38A (human, UniProt Q13283 1-139, S38A) (assay: fluorescence polarisation).
Chain of G3BP1 NTF2 (1-139) S38A (Q13283 1-139 S38A): as the sequence (Q13283 1-139 F33W/F124W) above, with W33F, S38A, W124F counted along it
{fluorescein-Ahx}-YNFIQDSMLDFE [Caprin1-derived dodecamer reporter peptide F*-YNFIQDSMLDFE]: binds.

Each binder was assayed against G3BP1 NTF2 (1-139) F15/124W (human, UniProt Q13283 1-139, F15W | F124W) (assay: fluorescence polarisation).
{fluorescein-Ahx}-YNFIQDSMLDFE [Caprin1-derived dodecamer reporter peptide F*-YNFIQDSMLDFE]: binds.

These binders were tested against G3BP1 NTF2 domain (residues 1-139) WT (human, UniProt Q13283 1-139) (assay: fluorescence polarisation).
Chain of G3BP1 NTF2 domain (residues 1-139) WT (Q13283 1-139): as the sequence (Q13283 1-139 F33W/F124W) above, with W33F, W124F counted along it
A Kd of 1.7 µM was found for {fluorescein-Ahx}-YNFIQDSMLDFE [Caprin1-derived dodecamer reporter peptide F*-YNFIQDSMLDFE] in this work.

What follows are binders tested against G3BP1 NTF2 (1-139) S38G (human, UniProt Q13283 1-139, S38G) (assay: fluorescence polarisation).
Chain of G3BP1 NTF2 (1-139) S38G (Q13283 1-139 S38G): as the sequence (Q13283 1-139 F33W/F124W) above, with W33F, S38G, W124F counted along it
{fluorescein-Ahx}-YNFIQDSMLDFE [Caprin1-derived dodecamer reporter peptide F*-YNFIQDSMLDFE]: binds.

What follows are binders tested against T1, His-tagged G3BP1 NTF2 (human, UniProt Q13283 1-139) (assay: peptide or protein array).
T1 sequence (Q13283 1-139): as the sequence (Q13283 1-139 F33W/F124W) above, with W33F, W124F counted along it
QGPYHFIQDSMLDFENQTLD [Caprin1 array peptide N371H]: binds. QGPYTFIQDSMLDFENQTLD [Caprin1 array peptide N371T]: binds. QGPYDFIQDSMLDFENQTLD [Caprin1 array peptide N371D]: binds. QGPYEFIQDSMLDFENQTLD [Caprin1 array peptide N371E]: binds. QGPYNFIQDSMLDFENQTLD [native Caprin1 array peptide QGPYNFIQDSMLDFENQTLD]: binds. QGPYNFIQDSYLDFENQTLD [Caprin1 array peptide M377Y]: binds. QGPYNFIQDCMLDFENQTLD [Caprin1 array peptide S376C]: binds. QGPYMFIQDSMLDFENQTLD [Caprin1 array peptide N371M]: binds. QGPFNFIQDSMLDFENQTLD [Caprin1 array peptide Y370F]: binds. QGPYNFIQDSMIDFENQTLD [Caprin1 array peptide L378I]: binds. QGPYWFIQDSMLDFENQTLD [Caprin1 array peptide N371W]: binds. QGPYIFIQDSMLDFENQTLD [Caprin1 array peptide N371I]: binds. QGPYNFIQDSFLDFENQTLD [Caprin1 array peptide M377F]: binds. QGPYCFIQDSMLDFENQTLD [Caprin1 array peptide N371C]: binds. QGPYYFIQDSMLDFENQTLD [Caprin1 array peptide N371Y]: binds. QGPYLFIQDSMLDFENQTLD [Caprin1 array peptide N371L]: binds. QGPYNFLQDSMLDFENQTLD [Caprin1 array peptide I373L]: binds. QGPYSFIQDSMLDFENQTLD [Caprin1 array peptide N371S]: binds. QGPYNFIQESMLDFENQTLD [Caprin1 array peptide D375E]: binds. QGPYFFIQDSMLDFENQTLD [Caprin1 array peptide N371F]: binds. QGPYKFIQDSMLDFENQTLD [Caprin1 array peptide N371K]: binds. QGPYRFIQDSMLDFENQTLD [Caprin1 array peptide N371R]: binds. QGPYQFIQDSMLDFENQTLD [Caprin1 array peptide N371Q]: binds. QGPYNFFQDSMLDFENQTLD [Caprin1 array peptide I373F]: binds. QGPYVFIQDSMLDFENQTLD [Caprin1 array peptide N371V]: binds.

Molecular target: T1, His-tagged G3BP1 NTF2
Test: peptide or protein array
Remark: another data set of the same source
HSPQYIVGDFSPDEFNQFFV [USP10 array peptide F10V]: binds. HSPQYIFGDWSPDEFNQFFV [USP10 array peptide F13W]: binds. HSPQYIIGDFSPDEFNQFFV [USP10 array peptide F10I]: binds. HSPQYILGDFSPDEFNQFFV [USP10 array peptide F10L]: binds. HSPQYIFGDLSPDEFNQFFV [USP10 array peptide F13L]: binds. HSPQYIYGDFSPDEFNQFFV [USP10 array peptide F10Y]: binds. HSPQYIFGDYSPDEFNQFFV [USP10 array peptide F13Y]: binds. HSPQYIFGDISPDEFNQFFV [USP10 array peptide F13I]: binds. HSPQYIFADFSPDEFNQFFV [USP10 array peptide G11A]: binds. HSPQYIFGDFSPDEFNQFFV [native USP10 array peptide HSPQYIFGDFSPDEFNQFFV]: binds. HSPQYIFGDVSPDEFNQFFV [USP10 array peptide F13V]: binds.

Reference: article doi:10.1101/2022.03.02.482667 (bioRxiv, 2022)
